The results in this text go back to US20240360218A1.

The assay has as its target human PD-L1 (hPD-L1), full length, expressed on cells (human) (UniProt Q9NZQ7). Nature of the assay: flow cytometry, AlexaFluor647-labelled antibody (5 ug/mL per p-1191) on monocyte-derived dendritic cells.

Chain of human PD-L1 (hPD-L1), full length, expressed on cells (human) (Q9NZQ7 19-290 limits assumed): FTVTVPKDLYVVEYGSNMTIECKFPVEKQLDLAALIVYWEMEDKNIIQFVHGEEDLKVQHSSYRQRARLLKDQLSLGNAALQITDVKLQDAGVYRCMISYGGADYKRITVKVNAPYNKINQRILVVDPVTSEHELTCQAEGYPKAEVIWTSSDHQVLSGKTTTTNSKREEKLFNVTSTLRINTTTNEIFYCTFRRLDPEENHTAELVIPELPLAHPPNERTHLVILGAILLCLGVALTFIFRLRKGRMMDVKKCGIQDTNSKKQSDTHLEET

For the substance Isotype hu IgG1 (D107) (antibody), the Geometric Mean : R1-A was 379.
